Experimental data as given in article PMC10847431, “Evidence the Isc iron–sulfur cluster biogenesis machinery is the source of iron for [NiFe]-cofactor biosynthesis in Escherichia coli” (Scientific Reports, 2024).
Values joined by “and” are separate entries in the source; they are usually repeats but may differ in a detail not shown here. Equal values may be shown once.

B1: HypD (natural protein, E. coli, UniProt P24192 1-373, looked up)
chain: MRFVDEYRAPEQVMQLIEHLRERASHLSYTAERPLRIMEVCGGHTHAIFKFGLDQLLPENVEFIHGPGCPVCVLPMGRIDTCVEIASHPEVIFCTFGDAMRVPGKQGSLLQAKARGADVRIVYSPMDALKLAQENPTRKVVFFGLGFETTMPTTAITLQQAKARDVQNFYFFCQHITLIPTLRSLLEQPDNGIDAFLAPGHVSMVIGTDAYNFIASDFHRPLVVAGFEPLDLLQGVVMLVQQKIAAHSKVENQYRRVVPDAGNLLAQQAIADVFCVNGDSEWRGLGVIESSGVHLTPDYQRFDAEAHFRPAPQQVCDDPRARCGEVLTGKCKPHQCPLFGNTCNPQTAFGALMVSSEGACAAWYQYRQQESEA
notes: HypD, hydrogenase maturation factor of Escherichia coli; printed mass 41,363.4 Da without and 41,715 Da with the [4Fe-4S] cluster; Carries a [4Fe-4S] cluster in all isolated complexes; No tag is named for HypD; also called native HypD; source: co-purified anoxically with it (StrepTactin Sepharose, when required Q-Sepharose)
B2: StrepII-tagged HypC (natural protein, E. coli, UniProt P0AAM3 2-90, looked up)
chain: CIGVPGQIRTIDGNQAKVDVCGIQRDVDLTLVGSCDENGQPRVGQWVLVHVGFAMSVINEAEARDTLDALQNMFDVEPDVGALLYGEEK
modifications: mixed population: unmodified species and species with +26 Da, +28 Da (CO or formyl), +16 Da (oxidation) and +136 Da (proposed Fe(CN)2CO) modifications, all associated with or dependent on the N-terminal cysteine residue (Cys2)
notes: HypC, hydrogenase maturation factor of Escherichia coli; lacks M1 (formyl-methionine lost after translation), so that Cys2 is the N-terminal residue; deconvoluted mass with the StrepII tag 10,641.5 Da; also called HypCStrep; StrepII-HypC; source: purified anoxically (StrepTactin Sepharose, when required Q-Sepharose); not shown: StrepII, C-terminal, kept

What was measured:
StrepII-tagged HypC = biological target: B2; assay: native MS; anaerobically isolated StrepII-tagged HypC-HypD complexes, about 10 μM, 500 mM ammonium acetate pH 6.8, nano-ESI High-Mass Q-TOF II, collision energy 30 V (90 V for CID dissociation); complexes from DHP-D, ΔsufA, ΔiscU and ΔentC-ΔfeoB strains; settings: both partners purified
HypD [1] = biological target: B1; assay: pull-down; StrepII-tagged HypC co-produced with HypD in E. coli strains with defects in iron metabolism; anoxic StrepTactin Sepharose affinity purification; SDS-PAGE with Coomassie staining and western blots with antisera against HypD and HypC; settings: partners not purified
HypD [2] = biological target: B1; assay: native MS; anaerobically isolated StrepII-tagged HypC-HypD complexes, about 10 μM, 500 mM ammonium acetate pH 6.8, nano-ESI High-Mass Q-TOF II, collision energy 30 V (90 V for CID dissociation); complexes from DHP-D, ΔsufA, ΔiscU and ΔentC-ΔfeoB strains; settings: both partners purified

With B1 the “stoichiometry N” value (StrepII-tagged HypC) was 1 HypC:HypD and the “stoichiometry of a minor complex species” value (StrepII-tagged HypC) was 2 HypC:HypD (2:1) and 1 HypC:HypD (2:2).

B2: binds (HypD [1]).

B3: StrepII-tagged HypC(C2A) (natural protein, E. coli, UniProt P0AAM3 2-90, looked up)
chain: AIGVPGQIRTIDGNQAKVDVCGIQRDVDLTLVGSCDENGQPRVGQWVLVHVGFAMSVINEAEARDTLDALQNMFDVEPDVGALLYGEEK
notes: HypC of Escherichia coli with the exchange C2A (codon 2 TGC to GCG); single major species, deconvoluted mass 10,611 Da, without the modifications seen on native HypC; lacking M1 as native HypC; also called StrepII-HypCC2A; source: E. coli DHP-D (ΔhypD) carrying pT-hypDC(C2A)Strep, co-produced with HypD; purified anoxically (StrepTactin Sepharose); not shown: StrepII, C-terminal, kept
B3: binds (HypD [2]).
